Results from the DeepSol protein solubility set.

Test: soluble on expression in E. coli; label from the status in PepcDB or PDB records

Row | Sequence | soluble on expression in E. coli
1 | MSLMKSSPLVRQASTEKESTKSENLTEYLIEAIVEGQLAPGSKISEPELAKQFQVSRGPLREALMRVEGLGLIERIPHIGARVIQLSPTKLVELYAVREALEGMAARLAARNITEIELAGLESLLSTHSTHIDQVEGASYFHQQGDFDFHYRIIQACRNQQLIGLLCDELYHLLRMYRYQSPRSHSRPVEALEEHKFILRAIRQRDEELAEMLMRRHISRSRQLIEQQIMLDAQQQGEGHHHHHH | soluble
2 | MSLMPPFLRILGIETSCDETAASIVVRHADGRGEIVSDVVLSQLEEHSAYGGVVPEIAARAHVEALDTLVEEALDQAGVKLADVDAIAATSGPGLIGGLLVGLMTGKAIAKAAGKPLYAINHLEGHALTARLTDGLSFPYLMLLVSGGHTQLVLVRGVGEYERWGTTIDDALGEAFDKTAKLLGLPYPGGPAVENAAAKGDPDRFPLPRPMVGEARLDFSFSGLKTAVRQAATAIAPLSEQDIADICASFQKAVSRTLKDRIGRGLARFKVEFPHINGEPALVVAGGVAANQEIRQTLQALCDTHGFRFVAPPHRLCTDNAAMIAWAGLERMAEGRQADALEVAPRSRWPLDGSAETLIGFGKRGAKAEGHHHHHH | not soluble
3 | MSLMVIRPVERSDVSALMQLASKTGGGLTSLPANEATLSARIERAIKTWQGELPKSEQGYVFVLEDSETGTVAGICAIEVAVGLNDPWYNYRVGTLVHASKELNVYNALPTLFLSNDHTGSSELCTLFLDPDWRKEGNGYLLSKSRFMFMAAFRDKFNDKVVAEMRGVIDEHGYSPFWQSLGKRFFSMDFSRADFLCGTGQKAFIAELMPKHPIYTHFLSQEAQDVIGQVHPQTAPARAVLEKEGFRYRNYIDIFDGGPTLECDIDRVRAIRKSRLVEVAEGQPAQGDFPACLVANENYHHFRVVLVRTDPATERLILTAAQLDALKCHAGDRVRLVRLCAEEKTAEGHHHHHH | soluble
4 | MSLMYPLVLDLAADGIPVTVTCRVLGFSTQAFYKWRKAPLTQRDWDDAHLINAARDIHADDPAFGYRFIADELPGRGITAGENRVARLCSQERIWSIFAKKRGLNRRSGPPVHDDLVERQFSAQAANQVWLTDITEHRTNEGKLYLCAIKDVYSNRIVGYSMDSRMKSSLAVAALDHAVALRSPVATIVHSDRGSQFRSRKFVRALSRNGLQGSMGRVGACGDNAAMESFFALLQRNVLDRKRWSTRAELRLAIVTWIERTYHRRRRQRALGRLTPIEFELLRTSVATAAEGHHHHHH | not soluble
5 | MSLNAGAVKLDESMTPMQAMAAVAAECVDHIARNAAVLAEVDTLGVYRAGTPEHVHQLRVGVRRLRSAWRLFDGWIADPSETLAQGARTHFSAFGMARDQDVLADTIMPLLARAGMPALPAEAAPSNDNAQSLAADRAFQGWLLELLAWSLDVPAEAAPPALRKRLTGRLRRWHLKVIDEGLRFGALELEARHELRKRVKRLRYGLSFAESLLPAARLRTYRKQLARVQDLLGEINDLAVARDYYQAALQAHPQAWFAVGWIGARLDGLTPQAQEAFDQLAHAKPFWKEGHHHHHH | not soluble
6 | MSLNAHLSAAWPVPVSVAPDALAEIQADFSREWLRLCDEAKRGVLGAPADKRFAGAAWLDDRQRLLMAHAYLLSARAMARLVEAAQVSEPMRNRLRFSVMQWVDAMSPANFLAFNPDAQRAIVESAGRTLQEGMANLLNDIQRGRISQTDETQFEIGRNVATTPGHVVFENSLMQLIQYAPQTAKVCERPLVIVPPNINKYYILDLQPENSFVRYAVEQGHTVFIISWRNPLAADTDGVDTATWSEYLDDAVLKALAVASDISGQPQVNALGFCVGGTMLASALALAQARGERPVASLTLLTSLLDFHDTGILKVFVDEAHALLRDHQYGQRGLMPARDLATTFSFLRPNELVWNYVVSNYLKGKTPPAFDLLFWNADSTNLPGPFFAWYFRNTYLENNLKVPGRARAAGVPLDLTRLDMPAYLYGSREDHIVPWPSAYASTQLLRGPMRFVLGASGHIAGVINPPAKQRRSYWVNESAGEGHHHHHH | not soluble
7 | MSLNAKPKDTVIANARIVLADRVIEQGWLALANGRVAEIGEGRAPAGAEDAGGDLIMPGLIELHTDHLEAHYVPRPKVFWNPVAAVVSYDGQLATSGITTVFDSLRVWREDGAEEVDGRAGVLAAAITTARDADLLRADHFLHLRCEIPMPSVVEEAKELIDRPDVKLMSLMDHTPGQRQFRDEGKLRDYYRGKNGGKTDAQLDELFAKRFEYQKAYAATNMREIVALAHQYNIPLASHDDTTEENVADAVRDRVSVAEFPTTLEAARGLHQAGIDILMGAPNVVRGGSHSGNIAAVDLAREGLLDILSSDYIPSSLLMAALQLPEHVPAISLPAAVRTVTKAPAEAVGLSDRGEIAVGKRADLIRVHIAGSVPVVRSVWREGGRVAEGHHHHHH | soluble
8 | MSLNAPRIIGVIVPDIVTHFFASILNGIENMAIDNGYFVIITTSHESFEHEKRNIENLVNMRVEGIIACLSQETTDFSHFAALKEINMPLILFDRVCLTDQFSSVIADGAQSAQMATQHLLDNGSKRVAFIGGANHLDIVKRRKHGYLEALRDNRIPIEKELVVCRKIDYEEGQIATETLLSLPQPPDAILAMNDTLAFAAMEVIKRHGLRIPDDIAIIGYTDEQHANYVEPKLSAVSHQTYKMGETACQLLIDQIKGDRTVKQVVIPTHLQIRESSIEGHHHHHH | soluble
9 | MSLNDKVTAVRDVWRYEQGEISKVEDRMVTEFPLTVILNGSEFVTLVCTPEHIEELVIGFLASEGVIRFQKEIKRFTIDESLGFVYVDLVHPETLDQKDYTKRVIGSCCGKGRHFYFQQDVKTAKTAVSQIKISPEACLALMKDMQQGSGTFQDTGGVHNAALCDTEKLLLMRTDIGRHNALDKLYGHCLLNGMSVRDKLIVFSGRISSEVLLKAAKIGVSIVISKSAPTELAIQMAEELNITAIGFVRNGSFNVYTHPERIREEGHHHHHH | soluble
10 | MSLNEIDKSVDIGFLRILDVIKKVKTPKGGIEVLRTLIDFTPKIENALNLATKSHKGQYRKSGEPYIVHPICVASVVAFCGGDEAMVCAALLHDVVEDTPCEIETIEREFGQDVANLVDALTKITEIRKEELGVSSQDPRMVVSALTFRKILISAIQDPRALVVKISDRLHNMLTLDALPHDKQVRISKETLAVYAPIASRLGMSSIKNELEDKSFYYIYPEEYKNIKEYLHKNKQSLLLKLNAFASKLEKKLFDSGFSHSDFKLVTRVKRPYSIYLKMQRKGAVNIDEILDLLAIRILLKNPIDCYKVLGIIHLNFKPIVSRFKDYIALPKENGYKTIHTTIFDESSVYEVQIRTFDMHMGAEYGNSAHWKYKAGGVDHEEHHEGMRWLQNFKYHDSDLKNDPKEFYELAKNDLYREDIVVFSPHGDTYTLPVGAIALDFAYMVHSDLGDKATDAYINSKKALLNQELRSGDVVKIIKGDKVIPRFIWMDQLKTSKAKNHLRIQRRNRLKEIDTKSMINILATFFGRSVFEDADLKDYKNFEEKLTDCGVETTLTEAMKSFENLAKLTEEIENKVFSLKEDAILEYQEMSLWTRGLRYLGFKTNVLNFLTPNRQWQCKELEHFSVCSSNALEIKQVLLNDCCYPKYGDEIIAIVTDLKDPKAIAHHKFCKKAIAEVDAKVPMVYIEWHKRDRTIYKMMFYLGEKKSVLASLLTFLNRNECNIVGVSYLGYKDKYSSHCEVSFEIATDKADWMRALINRKYQDRIVELSSLDDAYELQEGHHHHHH | soluble
11 | MSLNESEEKNSNSTYSFFFKNLSVTGFYEENCLFMTVKELFDNSIDALCNNKGDENIDEEGQGTQEKKIEIEIKEYGINSSFYEIICRDNGEGIEVKDLEKISEMFLTSKEKCITSGKFGIGLKTILLYSFKTAYGFLHIKIKVKKNKIWDFILVLDKNLNHTFVQNFKEYIDDKWEWTIEISVILKINNNYISDKKIHSYIKLFLLWKKNITVKYIHNPNGEQSIYTYSSHSDTSEENILSMLANNSINMIFKKDFLTSYNYDVNMYVNVRKSEKIIPYEHGHNIGFLFLIRYVNSMPLLRTSSSDCSITVDFRNFLKYYGPQFGIELPTIESRDEMILEELALPSCFDDLNKVANIFPVKRSEKSTWNIMIIGIDVRGRDISFVSLRKNCIKEGEYLSSLIKKCSINLYNNIKRELPQEFENLSDYQLRQALNIYGVQLASSLSKIILKGHEEFKNKIFFLLNEKKKIKNNSTCEKEEYNNKFTSYDENILTRELYSHIKEKIMLNEKTYENPKAKIQLTGDSNKSYYKNEGHHHHHH | not soluble
12 | MSLNGKNLTLNVPVTAAVPGARGIKADCITDGACTESSTYFQKSSNAATGSPYMFTIDMQKEAVISEINLSTRLVNGSEAAYKYTIEGSRDGKSYKMLVDGKLNWQVGFLILNIEDPSLYRYLRLRVYGVVNVHKNNSAMWADGIYEFAAYGKEGHHHHHH | not soluble
13 | MSLNILIVGGNGGIGLAMVKEALVRFPQAQIHATYRRTKSDYEHSALIWHQVDVTDETQVKNLSQAVNSIDWVINCVGMLHTPNKGPEKNLRMVEPDFFLQNIAVNTLPSMLLAKYFTPLLKCSGAPKFAVVSAKVGSISDNHLGGWYSYRASKAALNMFLKTMSIEWQRTLKNGVVLALHPGTTDTALSEPFQANVPEGKLFTPERVASDLMGQIVKAAPQDSGAFLTYDGEREGHHHHHH | soluble
14 | MSLNIPDEGFFTLLTQGMRNRTVETLQRALYHTLRDAILQGTLTARCRLPGSRVMAERLHLSRNTVNAALEQLALEGYLTRSRQGTQVAPLASCRQEAGQMPPVVLPERLQRLPAAMRRDSPTLAFTPGMPAVNYFPLPLWRRLMDNVLREDGSALLGYGEAAGDPLLREAIARHLALSRGIRCDIRQIVITEGALEGVNLCASLLTNPGDSVWLEEPGYLGAWSGFQRAGLRVRGMAVDDEGMCIANGVAEPPRLIFTSPSHQYPCGSIMSAGRRLALVEYARRHGAWIVEDDYDSEFRHSGEPIPAMLGMVPDAPVVYLGTFSKTLFPALRIGFMVMPPALADAAQDAIGALLRGGHRAEQRALASFIEKGHYARHLAAMRRLYRKRQQQLREALAQEITVPCDVLGGGGGMHLTVAMEGVNDRTLAQQARQFQLAPAALSHFYLDPQRARSGLVLGYGNTSASRYLPALRTLNRLIAQHRRAEGHHHHHH | not soluble
15 | MSLNKAVLHDHLDGGLRAKTAKELAIKDSYKPLIEIEDIESFFNRESSTSLEDYLEAFVHTTALMSNYDNLERIAFEAAEDMMHFCGITLYESRYAPLYSVNNNLLIKDVLHAINSGFKQAENMYGIKSGLILCGMRNDKDNVSQVSEIAIDFKDQIIGFDIAMGPEYNFLPSLFADEFNKLKNNGINLTIHAGEGDGVNSIQDALDNGAKRIGHGVRIIEDIDTSSKKLGKTAEYVRNKQVPLMEVCITSNIHTNMYEEYNKHPIKDLIDLEFNVSINTDNRLMSNTSMKKEIDIAKNLGINNIDRILENSASYSFLNDFEGHHHHHH | soluble
16 | MSLNKEFIMKFSLKSLLTIAAAASTLILAGCGEKAVDNNKVKIGVMAGAEAQVAEVAAKVAKEKYNLDVELVTFTDYVTPNAALDDGSIDANAFQHKPYLDKQIADRGYKLAIVGNTFVYPIAGYSKQIKSVDELQDGARIAVPNDPTNLGRSLLLLQQQGLLKLREDVGLLATVRDIVENPKKLEILELDAAQLPRSLDDVALSIINTTYASSINLTPEKDGIFVENKESPYVNILVAREANVNAENVQNFKKAYQTDEVAKAASEIFQGGAVKGWEGGSHHHHHH | soluble
